Assay results reported in patent publication US20230212549A1 (3B PHARMACEUTICALS, published 2023).
Values joined by “and” are separate entries in the source; they are usually repeats but may differ in a detail not shown here. Identical values can stand only once. Numbered stars: 1 amine (or outer) side, 2 acyl side, 3 side chain; on linkers, the order of the positions; unused ones are H or OH. Bridge positions count the residues as written; N and C are the ends. Square brackets hold non-standard residues; d marks the D form. Primed or numbered codes have the meaning given here. * marks the point of attachment. tMeBn(DOTA-PP) = 1,3,5-trimethylbenzylidene, two thioethers to Cys, third CH2 bound to one N of piperazine whose other N bears DOTA, O=C(O)CN1CCN(CC(=O)O)CCN(CC(=O)N2CCN(Cc3cc(C[*:1])cc(C[*:2])c3)CC2)CCN(CC(=O)O)CC1; tMeBn(DOTA-PP)″ = trimethylbenzylidene (tMeBn) bridge between the two Cys thiols, whose remaining connection point carries a DOTA chelator via a PP linker; Ttds(6) = 1,13-Diamino-4,7,10-trioxatridecan-succinamic acid, O=C(CCC(=O)[*:2])NCCCOCCOCCOCCCN[*:1]; 3MeBn = 3-Methylbenzylidene (m-xylylene thioether bridge from α,α′-dibromo-m-xylene); N4Ac = 6-Carboxy-1,4,8,11-tetraazaundecane, an N4-chelator, NCCNCC(CNCCN)C(=O)*; APAc = 2-(4-(Amino)piperidin-1-yl)acetic acid, O=C(CN1CCC(N[*:1])CC1)[*:2]; 3MeBn(3) = 3-methylbenzylidene (m-xylylene), from α,α′-dibromo-m-xylene; γGlu = O=C(O)[C@H](CCC(=O)[*:2])N[*:1]; 1Nal = N[C@@H](Cc1cccc2ccccc12)C(=O)O; mXylylene = c1cc(C[*:1])cc(C[*:2])c1; Pentanesulfonyl = CCCCCS(=O)(=O)*; Nle = CCCC[C@H](N)C(=O)O; Hexanoyl = CCCCCC(=O)*; Nleu = CC(C)CNCC(=O)O; Nlys = NCCCCNCC(=O)O

Assays:
[1] = target: T1, Recombinant human FAP (R&D systems, #3715-SE) (human, UniProt Q12884 26-760); test: cell-based or functional assay
[2] = target: T2, fibroblast activation protein (FAP) on FAP-expressing human WI-38 fibroblasts (human, UniProt Q12884 1-760); test: competitive FACS, WI-38 cells, vs Cy5 tracer m3; B = pIC50 7.1-8.0
T2 construct: also called human FAP

[3] = target: Recombinant human FAP (R&D systems, #3715-SE) (human, UniProt Q12884 26-760); test: cell-based or functional assay; remark: listed apart in the source
[4] = target: T1, Recombinant human FAP (R&D systems, …); test: SPR (Biacore T200), FAP captured on anti-FAP antibody, single cycle kinetics

Binder | pIC50 Category (Activity) [1] [pIC50] | pKD Category [4] [pKD] | further results
Hexanoyl-CFQTPPCD-NH2 (linker 1-7 via tMeBn(DOTA-PP); SMILES CCCCCC(=O)N[C@H]1CSCc2cc(cc(CN3CCN(C(=O)CN4CCN(CC(=O)O)CCN(CC(=O)O)CCN(CC(=O)O)CC4)CC3)c2)CSC[C@@H](C(=O)N[C@@H](CC(=O)O)C(N)=O)NC(=O)[C@@H]2CCCN2C(=O)[C@@H]2CCCN2C(=O)[C@H]([C@@H](C)O)NC(=O)[C@H](CCC(N)=O)NC(=O)[C@H](Cc2ccccc2)NC1=O) [Hex-[Cys(tMeBn(DOTA-PP))-Phe-Gln-Thr-Pro-Pro-Cys]-Asp-NH2] | ≤ 6 | – | –
Hexanoyl-CPPTE[1Nal]C-NH2 (linker 1-7 via mXylylene; SMILES CCCCCC(=O)N[C@H]1CSCc2cccc(c2)CSC[C@@H](C(N)=O)NC(=O)[C@H](Cc2cccc3ccccc23)NC(=O)[C@H](CCC(=O)O)NC(=O)[C@H]([C@@H](C)O)NC(=O)[C@@H]2CCCN2C(=O)[C@@H]2CCCN2C1=O, also called 3BP-3361) [Hex-[Cys(3MeBn)-Pro-Pro-Thr-Glu-1Ni-Cys]-NH2] | – | – | pIC50 Category (FACS) [2]: 7.1 pIC50 and 8 pIC50; pIC50 Category (Activity) [3]: 7.1 pIC50 and 8 pIC50
Hexanoyl-C[Nleu]PTQFC-NH2 (linker 1-7 via mXylylene; SMILES CCCCCC(=O)N[C@H]1CSCc2cccc(c2)CSC[C@@H](C(N)=O)NC(=O)[C@H](Cc2ccccc2)NC(=O)[C@H](CCC(N)=O)NC(=O)[C@H]([C@@H](C)O)NC(=O)[C@@H]2CCCN2C(=O)CN(CC(C)C)C1=O) [Hex-[Cys(3MeBn)-Nleu-Pro-Thr-Gln-Phe-Cys]-NH2] | ≤ 6 | – | –
Hexanoyl-C[Nlys]PTQFC-NH2 (linker 1-7 via mXylylene; SMILES CCCCCC(=O)N[C@H]1CSCc2cccc(c2)CSC[C@@H](C(N)=O)NC(=O)[C@H](Cc2ccccc2)NC(=O)[C@H](CCC(N)=O)NC(=O)[C@H]([C@@H](C)O)NC(=O)[C@@H]2CCCN2C(=O)CN(CCCCN)C1=O) [Hex-[Cys(3MeBn)-Nlys-Pro-Thr-Gln-Phe-Cys]-NH2] | ≤ 6 | – | –
N4Ac-[APAc][Nle]CPPTEFC-OH (linker 3-9 via 3MeBn(3)) [N4Ac-APAc-Nle-[Cys-(3MeBn)-Pro-Pro-Thr-Glu-Phe-Cys]-OH] | ≤ 6 | – | –
CPPTQFX (not fully specified; N-term Hex; X7 = AET; Cys1/AET7 thioether-cyclised via tMeBn(InDOTA-AET), also called 3BP-3713) [Hex-[Cys(tMeBn(InDOTA-AET))-Pro-Pro-Thr-Gln-Phe-AET]] | – | > 8 | –
Hexanoyl-CTQPFPCD-NH2 (linker 1-7 via tMeBn(DOTA-PP); SMILES CCCCCC(=O)N[C@H]1CSCc2cc(cc(CN3CCN(C(=O)CN4CCN(CC(=O)O)CCN(CC(=O)O)CCN(CC(=O)O)CC4)CC3)c2)CSC[C@@H](C(=O)N[C@@H](CC(=O)O)C(N)=O)NC(=O)[C@@H]2CCCN2C(=O)[C@H](Cc2ccccc2)NC(=O)[C@@H]2CCCN2C(=O)[C@H](CCC(N)=O)NC(=O)[C@H]([C@@H](C)O)NC1=O) [Hex-[Cys(tMeBn(DOTA-PP))-Thr-Gln-Pro-Phe-Pro-Cys]-Asp-NH2] | ≤ 6 | – | –
N4Ac-[γGlu][Nle]CPPTEFC-OH (linker 3-9 via mXylylene; SMILES CCCC[C@H](NC(=O)CC[C@H](NC(=O)C(CNCCN)CNCCN)C(=O)O)C(=O)N[C@H]1CSCc2cccc(c2)CSC[C@@H](C(=O)O)NC(=O)[C@H](Cc2ccccc2)NC(=O)[C@H](CCC(=O)O)NC(=O)[C@H]([C@@H](C)O)NC(=O)[C@@H]2CCCN2C(=O)[C@@H]2CCCN2C1=O) [N4Ac-gGlu-Nle-[Cys-(3MeBn)-Pro-Pro-Thr-Glu-Phe-Cys]-OH] | ≤ 6 | – | –
N4Ac-[Ttds(6)]E[Nle]CPPTEFC-OH (linker 4-10 via 3MeBn; not fully specified (residue 2); printed as N4Ac-Ttds-Glu(AGLU′)-Nle-[Cys-(3MeBn)-Pro-Pro-Thr-Glu-Phe-Cys]-OH) [N4Ac-Ttds-Glu(AGLU′)-Nle-[Cys-(3MeBn)-Pro-Pro-Thr-Glu-Phe-Cys]-OH] | ≤ 6 | – | –
Hexanoyl-CPPTQFCD-OH (linker 1-7 via tMeBn(DOTA-AET), also called 3BP-3665) [Hex-[Cys(tMeBn(DOTA-AET))-Pro-Pro-Thr-Gln-Phe-Cys]-Asp-OH] | – | > 8 | –
CPPTQFX (not fully specified; N-term Hex; X7 = AET; Cys1/AET7 thioether-cyclised via tMeBn(DOTA-AET), also called 3BP-3654) [Hex-[Cys(tMeBn(DOTA-AET))-Pro-Pro-Thr-Gln-Phe-AET]] | – | > 8 | –
Pentanesulfonyl-CPPTQFCD-NH2 (linker 1-7 via tMeBn(DOTA-PP)″, also called 3BP-3692) [Pentyl-SO2-[Cys(tMeBn(DOTA-PP))-Pro-Pro-Thr-Gln-Phe-Cys]-Asp-NH2] | – | > 8 | –
